This data set deals with Escherichia coli TOP10. Briefly: shrunken log2 fold change of peptide-encoding DNA abundance (4.5 h post-induction vs induction); higher = less antimicrobial activity (less host growth inhibition). The conditions noted are these: time post-induction: 4.5 h; library: site-saturation at positions 5, 18, 19, 20.
On to RRIRGRPPRLPRPRPRPMICPRP, for which the “shrunken log2 fold change” value was 0.166. Next, RRIRARPPRLPRPRPRPHVIPRP: 0.0726; RRIRERPPRLPRPRPRPMRRPRP: -0.0292; RRIRPRPPRLPRPRPRPWEFPRP: -0.0818. Take RRIRIRPPRLPRPRPRPIEYPRP: the “shrunken log2 fold change” value is -0.0602. The same measure for RRIRFRPPRLPRPRPRPKFTPRP: 0.012; for RRIRDRPPRLPRPRPRPILAPRP: 0.115; for RRIRYRPPRLPRPRPRPHVKPRP: -0.00472. Next, RRIRWRPPRLPRPRPRPHKSPRP: 0.0767; RRIRIRPPRLPRPRPRPQAHPRP: -0.261; RRIRWRPPRLPRPRPRPWTMPRP: -0.146. The same measure for RRIRGRPPRLPRPRPRPDHEPRP: 0.858.

With RRIRKRPPRLPRPRPRPQFAPRP, the “shrunken log2 fold change” value is -0.0223. The same measure for RRIRDRPPRLPRPRPRPFVSPRP: 0.00609; for RRIRHRPPRLPRPRPRPYTHPRP: -1.46; for RRIRTRPPRLPRPRPRPGGRPRP: 0.384. Next, RRIRLRPPRLPRPRPRPHCNPRP: -0.363.

In the case of RRIRCRPPRLPRPRPRPNPKPRP, the “shrunken log2 fold change” value came to 0.055.

RRIRQRPPRLPRPRPRPTPSPRP: the “shrunken log2 fold change” value turned out to be 0.507.

For the sequence RRIRSRPPRLPRPRPRPTSMPRP, the “shrunken log2 fold change” value is -0.187.

For RRIRGRPPRLPRPRPRPICSPRP, the “shrunken log2 fold change” value is 0.122. Next, RRIRHRPPRLPRPRPRPDWHPRP: 2.17. Next, RRIRGRPPRLPRPRPRPHRRPRP: 0.205. The same measure for RRIRTRPPRLPRPRPRPTGFPRP: -0.0124; for RRIRPRPPRLPRPRPRPDLTPRP: 0.168; for RRIRPRPPRLPRPRPRPFNVPRP: -0.0975. On to RRIRTRPPRLPRPRPRPSVMPRP, for which the “shrunken log2 fold change” value is -0.372.

With RRIRFRPPRLPRPRPRPSISPRP, the “shrunken log2 fold change” value was -1.18. The same measure for RRIRWRPPRLPRPRPRPYVKPRP: -0.436; for RRIRRRPPRLPRPRPRPPKHPRP: 0.39; for RRIRCRPPRLPRPRPRPIKTPRP: -0.0653. Next, RRIRFRPPRLPRPRPRPFNHPRP: -0.285; RRIRWRPPRLPRPRPRPRLLPRP: 0.178. The same measure for RRIRYRPPRLPRPRPRPYKLPRP: -0.491. With RRIRIRPPRLPRPRPRPPAGPRP, the “shrunken log2 fold change” value came to 0.518.

With RRIRTRPPRLPRPRPRPKRDPRP, the “shrunken log2 fold change” value was found to be 0.187. The same measure for RRIRHRPPRLPRPRPRPEDLPRP: 0.172; for RRIRWRPPRLPRPRPRPNDLPRP: 0.0302; for RRIRPRPPRLPRPRPRPHDVPRP: -0.242. Next, RRIRIRPPRLPRPRPRPPPEPRP: 0.32. RRIRWRPPRLPRPRPRPHYWPRP: the “shrunken log2 fold change” value was -0.0704.

As for RRIRLRPPRLPRPRPRPHPDPRP, the “shrunken log2 fold change” value was -0.111. Next, RRIRARPPRLPRPRPRPFCIPRP: -0.0716; RRIRSRPPRLPRPRPRPSCQPRP: -0.175; RRIRWRPPRLPRPRPRPFKHPRP: -0.405. Next, RRIRLRPPRLPRPRPRPPQQPRP: 0.313; RRIRQRPPRLPRPRPRPLGAPRP: 0.285. The same measure for RRIRFRPPRLPRPRPRPNPCPRP: -0.349; for RRIRLRPPRLPRPRPRPPHPPRP: 0.404. Regarding RRIRCRPPRLPRPRPRPYWMPRP, the “shrunken log2 fold change” value was -1.07. The same measure for RRIRSRPPRLPRPRPRPHYQPRP: -0.357; for RRIRQRPPRLPRPRPRPDMEPRP: 0.104. Next, RRIRHRPPRLPRPRPRPQCNPRP: -0.169; RRIRMRPPRLPRPRPRPKSCPRP: 0.839; RRIRLRPPRLPRPRPRPGPPPRP: 0.445. As to RRIRDRPPRLPRPRPRPHCKPRP, the “shrunken log2 fold change” value stood at 0.0223. Next, RRIRFRPPRLPRPRPRPDLRPRP: -0.108. Next, RRIRGRPPRLPRPRPRPFGIPRP: -0.0144. Next, RRIRYRPPRLPRPRPRPASIPRP: -0.229; RRIRQRPPRLPRPRPRPEYHPRP: -0.141; RRIRGRPPRLPRPRPRPSRKPRP: 0.293. On to RRIRVRPPRLPRPRPRPKHLPRP, for which the “shrunken log2 fold change” value was determined as 0.0232.

For the sequence RRIRFRPPRLPRPRPRPAGIPRP, the “shrunken log2 fold change” value is -0.161. Next, RRIRYRPPRLPRPRPRPSMHPRP: -0.601. Next, RRIRVRPPRLPRPRPRPCKLPRP: -0.453; RRIRKRPPRLPRPRPRPRSEPRP: -0.00081. For the sequence RRIRPRPPRLPRPRPRPFTKPRP, the “shrunken log2 fold change” value is -0.148. Next, RRIRIRPPRLPRPRPRPQFKPRP: -0.609; RRIRGRPPRLPRPRPRPIAMPRP: 0.401. Take RRIRRRPPRLPRPRPRPFCHPRP: the “shrunken log2 fold change” value was -0.17.

Consider RRIRYRPPRLPRPRPRPTGPPRP, for which the “shrunken log2 fold change” value is 0.0492.

For the sequence RRIRSRPPRLPRPRPRPRTPPRP, the “shrunken log2 fold change” value was determined as 0.502.

Turning to RRIRARPPRLPRPRPRPTNNPRP, the “shrunken log2 fold change” value turned out to be 0.00693. Next, RRIRERPPRLPRPRPRPKHPPRP: -0.0977; RRIRIRPPRLPRPRPRPEQPPRP: 0.307. The same measure for RRIRDRPPRLPRPRPRPDARPRP: 1.31; for RRIRSRPPRLPRPRPRPVYNPRP: -0.974. Next, RRIRPRPPRLPRPRPRPQSKPRP: -0.237; RRIRARPPRLPRPRPRPMNQPRP: -0.135; RRIRDRPPRLPRPRPRPPAMPRP: 0.87. Regarding RRIRHRPPRLPRPRPRPMFFPRP, the “shrunken log2 fold change” value is -0.347. The same measure for RRIRARPPRLPRPRPRPEETPRP: -0.03; for RRIRFRPPRLPRPRPRPRNHPRP: -0.132. The same measure for RRIRTRPPRLPRPRPRPQFTPRP: -0.0397; for RRIRQRPPRLPRPRPRPQTSPRP: 0.219. Turning to RRIRKRPPRLPRPRPRPCSKPRP, the “shrunken log2 fold change” value was -0.01. Consider RRIRHRPPRLPRPRPRPECMPRP, for which the “shrunken log2 fold change” value was -0.0379. Next, RRIRNRPPRLPRPRPRPSYWPRP: -0.145. The same measure for RRIRMRPPRLPRPRPRPEVHPRP: -0.0544; for RRIRKRPPRLPRPRPRPYVVPRP: -0.226; for RRIRCRPPRLPRPRPRPSGKPRP: -0.327. For RRIRTRPPRLPRPRPRPMPGPRP, the “shrunken log2 fold change” value was found to be 0.106. The same measure for RRIRDRPPRLPRPRPRPGEEPRP: 0.0844; for RRIRDRPPRLPRPRPRPDNLPRP: 0.0916. The same measure for RRIRSRPPRLPRPRPRPIGYPRP: 0.0746; for RRIRYRPPRLPRPRPRPVYDPRP: -0.112; for RRIRPRPPRLPRPRPRPMICPRP: -0.172. RRIRARPPRLPRPRPRPSAPPRP: the “shrunken log2 fold change” value amounted to 0.397. RRIRGRPPRLPRPRPRPWCCPRP: the “shrunken log2 fold change” value was determined as 0.0685.

Take RRIRPRPPRLPRPRPRPWWVPRP: the “shrunken log2 fold change” value was found to be 0.0961. Next, RRIRSRPPRLPRPRPRPFDSPRP: -0.0702. The same measure for RRIRIRPPRLPRPRPRPNRIPRP: -0.481.

For RRIRERPPRLPRPRPRPYDKPRP, the “shrunken log2 fold change” value is -1.41.

Turning to RRIRVRPPRLPRPRPRPAIFPRP, the “shrunken log2 fold change” value was 0.0175.

Regarding RRIRSRPPRLPRPRPRPASFPRP, the “shrunken log2 fold change” value was -0.226. On to RRIRSRPPRLPRPRPRPWWGPRP, for which the “shrunken log2 fold change” value came out at 0.0289. Next, RRIRQRPPRLPRPRPRPARHPRP: 0.0911; RRIRKRPPRLPRPRPRPSAQPRP: 1.84; RRIRMRPPRLPRPRPRPSMQPRP: 0.345. For RRIRSRPPRLPRPRPRPCNSPRP, the “shrunken log2 fold change” value is -0.0626.

For RRIRRRPPRLPRPRPRPYKLPRP, the “shrunken log2 fold change” value was -0.669. The same measure for RRIRERPPRLPRPRPRPPVVPRP: -0.0806; for RRIRWRPPRLPRPRPRPQTDPRP: 0.236. Turning to RRIRLRPPRLPRPRPRPAAGPRP, the “shrunken log2 fold change” value was found to be 0.312. The same measure for RRIRVRPPRLPRPRPRPRYKPRP: -0.131; for RRIRWRPPRLPRPRPRPNSRPRP: 0.0524; for RRIRSRPPRLPRPRPRPWTWPRP: -0.0804. The same measure for RRIRGRPPRLPRPRPRPVYDPRP: 0.32; for RRIRSRPPRLPRPRPRPMGMPRP: -0.366. The same measure for RRIRFRPPRLPRPRPRPMFIPRP: -0.443; for RRIRGRPPRLPRPRPRPGGMPRP: 0.662. With RRIRPRPPRLPRPRPRPMLQPRP, the “shrunken log2 fold change” value was -0.105. The same measure for RRIRNRPPRLPRPRPRPIDQPRP: -0.058; for RRIRDRPPRLPRPRPRPELNPRP: 1.04; for RRIRPRPPRLPRPRPRPRMEPRP: 0.197.

For the origin of these results see the supplement of paper PMC9112550, “Optimization of the antimicrobial peptide Bac7 by deep mutational scanning” (BMC Biology, 2022).
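Also: peptides expressed intracellularly from a pBAD plasmid library in pooled LB shake-flask culture, induced with 0.3% L-arabinose, DNA abundance read by NGS, three biological replicates, DESeq2 with apeglm shrinkage.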
